According to the DeepSol protein solubility set:

Assay: soluble on expression in E. coli; label from the status in PepcDB or PDB records

Row | Sequence | soluble on expression in E. coli
1 | MSLGETYAPQCAGPAPEPRTLPRTLPDGACDCHFHVFGDENGQPFSPHRSYTPPPAPLEAFQRVQKTLGLSRGVIVQPSVYGADNSTTLAALKEAGSAFRGVVVIDADTDTETLWAMHRLGVRGVRVNLIFKSGVEVSDVAALAEKVAPLGWHLQLLIDITEFADLYETVASLPVAVVIDHMGHMPTSCGLGHPGFTDLLRLLKEGRVWVKLSGAYRFTASKDFPYDDVTPYARALIEANPNRLLWASDWPHPCIPVPMPNDASLLEMLFNWVENDDALIKQILVDNPAKLYGEGHHHHHH | not soluble
2 | MSLGFKEYYRAFPTYTKIESKEYKGRVETLGPILIKYMNKNRGKVLDLACGVGGFSFFLEDLGFDVVGLDNNPEMIEAAKRYAEKRSSKVNFVVGDAKNLPFENNSFDYVIFIDSIFHFTPSELNQVFKEVKRVIKPEGRFLIYFTDLRELLPNLKERLVIGEKYWVNRITTDTSERIATIEFKSEDDEFRVEFNIWGKTGVELLAKLYFTKEAEEKVGGYSYLIVYNPKEGHHHHHH | soluble
3 | MSLGIAGTNTVRLQVYTNLKTFKSGDEISDGWVAKFHTDGDYIKWFAIENEDSLEGKEIKLFDTYKVDYTGTIKEKEKGKVTYAVLKAYVAIDPLERQYKELTLGIGDEIEDTAYSIKDVDVEFEPKETYIPKKLTEPITVLDTEIMEQGLENVDSNLILVGGPVVNKVTAALAEDLGVPTTYDEWKEKFGTGADSGQIIYKEKCSKIGGYGVLLVAGTDREGTRAAAEALLEYISKLEGHHHHHH | soluble
4 | MSLGITGPTFDLTAQPGRANQPDGASVYSWGYGCNPRTVPGFLPSVNPLAGQNCPGMQLPGPTLIVHQGDVVTVTLTNNLPPAAGNTSILFPGFQVCAGTLDPNTGACSGTPTGVQGLLTREAQTGKTVTYTFIATTPGTHAYYSGTQGDLQVEMGLYGALIVLPTASGSVAVPAGCRAVSSLLPDGQPDYRNAAAAYNHSMACYDREYLFQFSEIDPAIHVQAEQQAGLPCAQPAGCMIVRTEPYHPAYFMVNGRSMPDDMDTNYAPQYPSQPYNGNPHMHPGELVLLRIIGTGRWQHPFHEHGNHVRVLARDGNLLLSQGDPSKVAGPLLFTTTTTPGLAMDGIFYWTGRGLNWDVYGHKPGDGSVCIPDANGYYTQDPTAPNYYEWCADHDKPLEAHPFGDVNSGGPVTLPDPNIFSNGAWYGGSPYLGPDATIRAVGATGTTPPTGTIANPPTTEAGFAFMWHSHNEREITTNNIFPGGMMMMMLVDPQAFVINEANEGHHHHHH | not soluble
5 | MSLGLINPDFQTLPELFTSVFSHFKGQPDKAPIARKINGAYSPISYDSLAEDCRHFAAYLKERGIEPGDRVAILSENRPGWYLADIAILSLGATDVPLYPSLPPNQIEYILNNCSAKGIIVSNMLQLGKILSIWPKLPELNMVIVMNKLDEPVEDVIDLSQAKTEGKKVLEAKPWLLDGIKSNPDDVATLIYTSGTTGLPKGVMLTHRNICENVKSCSTVIRIDQTDSSLSFLPLSHAYERTGGYYLMFACGARINLAESVETISLNISEAKPTIIFTVPRLFDRMKASILKSVTSEGGVKEKIFFWAVSTGEKYHKQLATGKVSPLLAVQHNLADKLVYSKIRKKFGGKLRYFVSGGAALPQKTGEFFQSIGITILEGFGLTETSPVTNVNRPEKVKFGTVGLPVKNVEVKIAPDGEIMLKGPNIMKGYWKDEAASAEVLRDGWLYTGDIGEVDSEGYLKITDRKKHIIVTSGGKNIAPLQIENLILDSPYVDQAMIVGEKRPFLIALIVPDFLKLRDFAAEHQIKASSTKELINTKEVIEVYEKLLKSISRQLATHEKVRKFLLLEEPFSIENGMMTPTLKLKRKEITTKFSAEIDNLYNTLNMVYNTEGHHHHHH | soluble
6 | MSLGMDEKSVAIVFPHHLLEDHPAAGKTSGFILVEDQLFFGDPVFGLRFHKNKLVLHRASMRYYHDHLKSRGLKAEYIQYSPDPHMGYLRDHLEGYDRVYTLELLDHELEARMKKLSMELGLEITEIEAPFIFRRNLMDGYFRDGRFLLRSFYIRERKRLSILMENSRPAGGKWTFDTENRKRMPPDLQVPAPVKLPENEYVQEAKEYVSEKFPDNPGSMDRFNYPEGHHHHHH | soluble
7 | MSLGQKGHKDSLYPCGGTPESSLHEALDQCMTALDLFLTNQFSEALSYLKPRTKESMYHSLTYATILEMQAMMTFDPQDILLAGNMMKEAQMLCQRHRRKSSVTDSFSSLVNRPTLGQFTEEEIHAEVCYAECLLQRAALTFLQDENMVSFIKGGIKVRNSYQTYKELDSLVQSSQYCKGENHPHFEGGVKLGVGAFNLTLSMLPTRILRLLEFVGFSGNKDYGLLQLEEGASGHSFRSVLCVMLLLCYHTFLTFVLGTGNVNIEEAEKLLKPYLNRYPKGAIFLFFAGRIEVIKGNIDAAIRRFEECCEAQQHWKQFHHMCYWELMWCFTYKGQWKMSYFYADLLSKENCWSKATYIYMKAAYLSMFGKEDHKPFGDDEVELFRAVPGLKLKIAGKSLPTEKFAIRKSRRYFSSNPISLPVPALEMMYIWNGYAVIGKQPKLTDGILEIITKAEEMLEKGPENEYSVDDECLVKLLKGLCLKYLGRVQEAEENFRSISANEKKIKYDHYLIPNALLELALLLMEQDRNEEAIKLLESAKQNYKNYSMESRTHFRIQAATLQAKSSLENSSRSMVSSVSEGHHHHHH | soluble
8 | MSLGQNRLELLLFRLDGQQLYGINVFKVREVLQCPQLTLMPKSSPVVCGVANIRGATIPILDLAMATGSGALKDKNSPFVIITEYNTKTQGFLVRSVERIVNMNWEEIHPPPKGTGRDHYLTAVTRVDNQLVEIIDVEKVLAEVAPTPEAISVGVVDVETQSKALSLRVLTVDDSSVARKQVTRCLQTVGVEVVALNDGRQALDYLRKLVDEGKKPEEEFLMMISDIEMPEMDGYTLTAEIRSDPRMQKLHIILHTSLSGVFNQAMVKKVGADDFLAKFRPDDLASRVVDRIKAADISEGHHHHHH | soluble
9 | MSLGQSAQLRSWLQAMPKGGDLHNHLSGSVYAEDYLQWASEDGACVQLDDLSLRAPPCVAGQVPARGLSTRDVALYGRVVDALSMRNHLASPSQPTGHGQFFSTFGKFDAVVRARVADTVAAVLEQAARDRVPYVEIIANPPQMDDAAQRMQALPWHGTDDAANLRELQDALPPLVQAAQRNLADLDAQVRHVLQCDQAQPRAACQVQYRYVPYVLRVLPAPQVFGQMALAHALVAAGGSRAVAVNIVAPEDNPVAVADYARHMAMFRFFAQRYPGVPLSLHAGELTLGLVPPAQLRSHIRQAVDAGARRIGHGVDLPYEDDAQELLQRMRRDQVAVEINLTSNDVILGVTGAAHPLAMYLRAGVPVVLSTDDAGVSRADMTHEYQRAVQEQGIEYPTLKQLARNGLTYSFLPGASLWSANGKAAQACATALQRETDDAGCQAFRQSSEKARLQWQLETDLAQYERMLMEQRKVQTEGHHHHHH | not soluble
10 | MSLGRFQTLDYEIPESMQRSWQDIVNLLAQIADVPTTLIMRVHQNHIEVNTSSDTQGNPYKAGDKEDLGHGLYCEHVIETKSQLVVPDALADEKWSNNPDIKLGMLSYCGLPLFWPNGETFGTICMLDSKANEYSETYRQLLNTFKDSIEAQLAVVYQQYKLLRLNSELKNRVENRTTDLAQLSFSLTQEIDRRKAAERQVNYQKTHDQGTGFLNRAALEAVVEDTLQSLEHGHQSLIVINVGFSNARSIQTRYGFEAFDEILKEFRKRLGMNDSNYFITGRPSSNDLVLLLWGEDADSKLHNLLDKITNISVGNFYINDTEVHLHSYVGVVQAHRSSSAKQLLQNACYAMLLCKESGEAYSYFCESHTHEGHHHHHH | soluble
11 | MSLGRMFGTDGVRGIANKELTAELAYRLGRAGAYVLTNETHKPKILVGMDTRISGDMLEAALVSGILSVGAEAVCVGIVPTPAVAYLTRKYKADAGVVISASHNPVEYNGIKFFDAKGYKLSDNLEDEIQKIIESDFEGVPLPTGESVGRKVVEESAEEDYIKFAKSTIGTDLKGMKIALDCANGAAYKTAVKTFRELGAQVTVINNDPDGININCNCGSTHPEELMDYVVKKNCDLGLAFDGDADRCLAVDEKGNLIDGDFIMAICGKYLKDKGELHKDVVVVTVMSNMGLFLALDKANIKTVKTKVGDRYVLEEMLKEGYKLGGEQSGHIIFLDYNTTGDGLVTALKICSIVKESRKTLSKLASIMHKLPQVLANAKVPNNKKDIYLEDKEISDEIKKIEEELHGKGRVLIRPSGTEPLVRVMLEGEDQDRLNTLAHGLAELIEKKANEGHHHHHH | soluble
12 | MSLGSQTDGSPAGGWPALNAVNKHLLHQHVLVKGNRTLLSMNKPGGFDCPSCSWPDPKKPHTFEYCENGAKALAWESTKKRVTPEFFARHTVSELATWSDHDLEKQGRIAEPMRYDAASDKYLPVTWDEAFAEIGEELRQLSDPWKLELYTSGRTSNEAAFLYQLFGRLYGMANFPDCSNMCHETTTVALPESIGVGKGTTTLEDFENADAIFIIGQNPGSNSPRMMSELHAAAKRGASIISFNPLREKALVRFASPQDPRDMLSLHGVEISSQYHQVRIGGDMIALQGVCKAVIEADDVARREHLPRVLDVAFIEEHTHGFEQYADYCRQLPWDLIESHSGLTRQAIEDVAAVYRRSERVICCWGMGVTQHKRGGDAVQQIINLLLLRGNIGKLGAGACPVRGHSNVQGDRTMGIYEKAGEPFLASMSKVFGFEASRRKGHAVAETCEALLRGEVEALISMGGNFFRAIPDIDAICPTVSRLKMTVLVNTKLNRSATVHGQKAFLLPCVARSERDLQNGVAQTITVEDSMSIVHGSTGMLEPASKHLISEVAIIAGIAKATLAPNPNVDWDSYVGDYARIRDKIEEVLPEQFYDFNRRILEPGGFRLPNAASERKWDTESGKANFLFTEGIYDEDDTPPGAAHLQLMTIRSHDQFNTTVYSNDDRYRDIFGDRMVVMLNPQDIERLGLKAGDYIEFQTALDLTTPRRAPGFKVIAYDVPPGCCAAYYPETNGLLPLANRDSRSNTPAAKSIPVNLVRMSPEGAQVALEREGHHHHHH | soluble
13 | MSLGSRNGEKDWENASTTSSVASGTEYTGPKLYKEPSAKSNKHIIQNALAHCCLAGKVNEGQKKKILEEMEKSDANNFLILFRDSGCQFRSLYTYCPETEEINKLTGIGPKSITKKMIEGLYKYNSDRKQFSHIPAKTLSASVDAITIHSHLWQTKRPVTPKKLLPTKEGHHHHHH | soluble
14 | MSLGYDVIFVSGVAKARFRRRMRKLVLCITALLLSGCSREFIEKIYDVDYEPTNRFAKNLAELPGQFQKDTAALDALINSFSGNIEKRWGRRELKIAGKNNYVKYIDNYLSRSEVNFTEGRIIVETVSPIDPKAHLRNAIITTLLTPDDPAHVDLFSSKDIELKGQPFLYQQVLDQDGQPIQWSWRANRYADYLIANHLKVKQVDFKKAYYVEIPMVKDQIDIRGYKYASIVRKASRKYDIPEDLIYAIIKTESSFNPYAVSWANAYGLMQVVPKTAGRDVFKLVKNRSGEPSPEYLFNPENNIDTGTAYFYILKNRYLKEVRHPTSLEYSMISAYNGGTGGVLSTFSSDRQRAMRDLNALQPNQVYWALTKKHPNAEARRYLEKVTKFKKEFNAGEGHHHHHH | not soluble
15 | MSLGYLNNVTGYREDLLANRAIVKHGNFALLTPDGLVKNIIPGFENCDATILSTPKLGASFVDYLVTLHQNGGNQQGFGGEGIETFLYVISGNITAKAEGKTFALSEGGYLYCPPGSLMTFVNAQAEDSQIFLYKRCYVPVEGYAPWLVSGNASELERIHYEGMDDVILLDFLPKELGFDMNMHILSFAPGASHGYIETHVQEHGAYILSGQGVYNLDNNWIPVKKGDYIFMGAYSLQAGYGVGRGEAFSYIYSKDCNRDVEIEGGSHHHHHH | soluble
16 | MSLHLARVDRQWPRPLQPLGNTCSMMLIKQFPDISLNDTLFVFALEAEAGDVFTEVNTVFTGIGKVNAAIALTKAIATRRPKLIVNLGSAGSQRHGKGEIVCCNRFVQRDMDVTALGFARYETPLSDTPVVLEHGAAIPGLAVETCGSGDSFEINHGDAPYDVVDMEAYVLALIARGEGIPFVCLKYISDDAGSEAAGDWAVQVHLAAEAFKRVLFSQAEGHHHHHH | soluble
